Measured values taken from the Immune Epitope Database (IEDB).

Legend:
Assay in all cases: IEDB peptide-MHC binding, purified MHC/competitive/radioactivity; filed as Kd, often an IC50 or EC50 that approximates it; ≥ and ≤ were set here for values at or beyond the usual limits of such assays
[1] = molecular target: HLA-A*02:06
[2] = molecular target: HLA-A*03:01
[3] = molecular target: HLA-A*11:01
[4] = molecular target: HLA-A*31:01
[5] = molecular target: HLA-A*33:01
[6] = molecular target: HLA-A*68:01
[7] = molecular target: HLA-A*02:03
[8] = source organism: Dengue virus 1 Brazil/97-11/1997
[9] = source organism: Vaccinia virus WR
[10] = source organism: Dengue virus 2 Jamaica/1409/1983
[11] = source organism: Dengue virus 4 Philippines/H241/1956
[12] = source organism: Lassa virus Josiah
[13] = source organism: SARS coronavirus Tor2
[14] = source organism: Dengue virus 3 Martinique/1243/1999
[15] = source organism: Mammarenavirus tacaribeense
[16] = source organism: Mammarenavirus juninense

Row | Sequence | Kd [2, 9] [nM] | Kd [3, 9] [nM] | Kd [4, 9] [nM] | Kd [5, 9] [nM] | Kd [6, 9] [nM] | also measured
1 | FQDGVFHTM | – | – | – | – | – | Kd [1, 8]: 13.8 nM
2 | GFMRFFQLLR | 526 | 937 | 53.7 | 86.3 | 2410 | –
3 | GLFGKGSLI | – | – | – | – | – | Kd ([7]; source organism: Dengue virus 1 Nauru/West Pac/1974): 13 nM
4 | GLFKTNTGTI | – | – | – | – | – | Kd [7, 10]: 45.8 nM
5 | GLSETGFMR | 16300 | 2710 | 85.5 | 155 | 2130 | –
6 | GLSSRATWA | – | – | – | – | – | Kd [7, 11]: 36.9 nM
7 | GMVTLYLGV | – | – | – | – | – | Kd [7, 8]: 12.4 nM
8 | GTSNWTGNY | 11.5 | 1.06 | ≥ 77900 | ≥ 77700 | 3720 | –
9 | HLKVALYRR | 1190 | 9610 | 0.197 | 9.72 | 67.1 | –
10 | HSVFKGFSDK | 11.6 | 13.5 | 1420 | 14600 | 52 | –
11 | ICKMPLPTK | – | – | – | – | – | Kd [2, 12]: 891 nM; Kd [3, 12]: 712 nM; Kd [4, 12]: 19800 nM; Kd [5, 12]: ≥ 47400 nM; Kd [6, 12]: 17200 nM
12 | IICEDAMYY | 2360 | 196 | ≥ 61400 | ≥ 77700 | 3660 | –
13 | IIMRCWLCWK | – | – | – | – | – | Kd [2, 13]: 1.65 nM; Kd [3, 13]: 0.426 nM; Kd [4, 13]: 14.4 nM; Kd [5, 13]: 198 nM; Kd [6, 13]: 0.903 nM
14 | ILHAYCGIK | 32.8 | 582 | 2620 | ≥ 33800 | 1860 | –
15 | ILSYIYSEIK | 38.8 | 62.1 | ≥ 37000 | ≥ 70000 | 1240 | –
16 | ILTYNKTSK | 45.8 | 1260 | 1620 | ≥ 20100 | 442 | –
17 | IMKDGRVLVV | – | – | – | – | – | Kd ([7]; source organism: Dengue virus 2 16681-PDK53): 6.09 nM
18 | KQIANELNYI | – | – | – | – | – | Kd [1, 14]: 32.5 nM
19 | KSDAKRNSK | 1150 | 887 | 1850 | ≥ 77700 | ≥ 77700 | –
20 | KTLTGEIGAV | – | – | – | – | – | Kd [1, 11]: 30.7 nM
21 | LFCLLNRYFR | – | – | – | – | – | Kd [2, 13]: 1240 nM; Kd [3, 13]: 550 nM; Kd [4, 13]: 12.9 nM; Kd [5, 13]: 36.1 nM; Kd [6, 13]: 251 nM

Row | Sequence | Kd [2, 9] [nM] | Kd [3, 9] [nM] | Kd [4, 9] [nM] | Kd [5, 9] [nM] | Kd [6, 9] [nM] | also measured
22 | LFKRERDAIK | ≥ 30000 | ≥ 69800 | 1430 | 8280 | ≥ 35500 | –
23 | LFVKKMLPK | 1510 | 239 | 1440 | ≥ 33200 | 470 | –
24 | LIKKSDAKR | ≥ 78000 | 236 | 13.8 | 533 | 170 | –
25 | LLFQLCTFTK | – | – | – | – | – | Kd [2, 13]: 15.2 nM; Kd [3, 13]: 16.3 nM; Kd [4, 13]: 197 nM; Kd [5, 13]: 6910 nM; Kd [6, 13]: 66.3 nM
26 | LLIWAYLSK | 90.7 | 101 | 11200 | ≥ 37100 | 153 | –
27 | LLMLVTPSMT | – | – | – | – | – | Kd [7, 14]: 169 nM
28 | LQWIASAIV | – | – | – | – | – | Kd [1, 14]: 3.72 nM
29 | LSSKGLACYR | 129 | 43.8 | 6.87 | 47 | 4.75 | –
30 | MAILCVPNAV | – | – | – | – | – | Kd [1, 10]: 5.35 nM
31 | MQTMLFTMLR | – | – | – | – | – | Kd [2, 13]: 72.4 nM; Kd [3, 13]: 11.2 nM; Kd [4, 13]: 9.75 nM; Kd [5, 13]: 13.3 nM; Kd [6, 13]: 1.1 nM
32 | MSYYCKSHK | – | – | – | – | – | Kd [2, 13]: 15.1 nM; Kd [3, 13]: 78.9 nM; Kd [4, 13]: 18.9 nM; Kd [5, 13]: 1590 nM; Kd [6, 13]: 55.3 nM
33 | NAFNCTFEY | – | – | – | – | – | Kd [2, 13]: 3970 nM; Kd [3, 13]: 19.9 nM; Kd [4, 13]: 11500 nM; Kd [5, 13]: 1870 nM; Kd [6, 13]: 9.72 nM
34 | NCKCCWFADK | – | – | – | – | – | Kd [2, 15]: 13300 nM; Kd [3, 15]: ≥ 69700 nM; Kd [4, 15]: 12100 nM; Kd [5, 15]: ≥ 29600 nM; Kd [6, 15]: ≥ 20700 nM
35 | NFPQHVITK | 4020 | 2050 | 11600 | 8920 | 1250 | –
36 | NQLESKVSGK | – | – | – | – | – | Kd [2, 13]: 9480 nM; Kd [3, 13]: 14700 nM; Kd [4, 13]: ≥ 42500 nM; Kd [5, 13]: ≥ 70000 nM; Kd [6, 13]: 6960 nM
37 | NSYISNIIY | 7480 | 2490 | ≥ 23700 | 11700 | 597 | –
38 | NVISSKISY | 651 | 482 | 4960 | 6450 | 439 | –
39 | NYTKFWYVNH | – | – | – | – | – | Kd [2, 16]: ≥ 70000 nM; Kd [3, 16]: ≥ 56900 nM; Kd [4, 16]: 1000 nM; Kd [5, 16]: 54.5 nM; Kd [6, 16]: 9630 nM
40 | PLNEGIMAI | – | – | – | – | – | Kd [7, 8]: 63.8 nM
41 | PLYIDISDVK | 156 | 9170 | 9500 | ≥ 56300 | 1420 | –
